This note sets out measurements from PMC6536551, “The viral protein corona directs viral pathogenesis and amyloid aggregation” (Nature Communications, 2019).

The series deals with the molecule itself. The series can be described thus: thioflavin-T fluorescence.

B1: NNFGAIL peptide (model amyloidogenic peptide derived from islet amyloid polypeptide, IAPP) (peptide)
peptide: NNFGAIL
notes: […]; text and methods print NNFGAIL; source: synthetic peptide (Pepscan)
Consider B1, for which the binding result is on record as “binds”.
